From PMC7472852, “The Phosphatase PP2A Interacts With ArnA and ArnB to Regulate the Oligomeric State and the Stability of the ArnA/B Complex” (Frontiers in Microbiology, 2020) come the findings set out here.

To fix the notation:
B1: N-terminally Strep-tagged ArnA (natural protein, S. acidocaldarius, UniProt Q4J9H4 1-206, looked up)
chain: MTWKCNLCGYENDDDALFCIKCGAQKSSEAQQLPQQQPSEPQAQGVVTQQQVVTNPPVQAQVATPQQPAQQPVLPQPEPAQPQPVSSTPAPQQASQPTNRYYIYFIQTPNENLVNKKVLLNFDLFPSVSMGRSPENIVIVPDSEVSRKHAVIYLDNSELYIEDLNSTNGTYVYDGKQFTPIKGKQKIEPNSIIKLGNQTIVRILKE
notes: ArnA of Sulfolobus acidocaldarius; printed molecular mass of Strep-ArnA 26.8 kDa; also called Strep-ArnA; source: E. coli Rosetta (DE3)/pLysS, purified (heat step, streptavidin beads, SEC); not shown: Strep II, N-terminal, kept
B2: C-terminally His-tagged ArnB (natural protein, S. acidocaldarius, UniProt Q4J9H3 1-380, looked up)
chain: MTISVKAELSHKYSFTSPLKGVFRLIIVPEKVSTARGFHYIILLDTSGSMYGVKIETAKQGAMELLSRIPEGNKISFLTFSNNVNILSEYADAPSLVQQIKQIRSGGQTVLYRALERAIEIAKKHDLPGYIILLTDGQPTDVPETDAYEKLNYPEAYKVIAFGIGDDYNERLLKVITDKTAGILYHVEDAKEIAEMLPQSAVTEIGAKNVSIDIVSETQVKLLNYPGPPVKLGAVESVVRVYGEIIIPPNFTGRLATVKISYEDPLSSRINRLEVNFDITRANDVKRFLDGINNDLVNEYRYYELMSKLANQLNSNNLSEATRTVEQMQMIAQQTRRMELIETTRRISESIETTRRIGTVEQTRKISKEITSEVTKKLRS
notes: ArnB of Sulfolobus acidocaldarius; printed molecular mass of ArnB-His 43.6 kDa; also called ArnB-His; source: E. coli Rosetta (DE3)/pLysS, purified (heat step, Ni-NTA, SEC); not shown: His, C-terminal, kept
B3: phosphorylated ArnA/B complex (complex, S. acidocaldarius)
chain 1: B1 chain
chain 2: B2 chain
modifications: phosphorylated in vitro by the kinase ArnC (sites not given) | phosphorylated in vitro by the kinase ArnC (sites not given)
notes: ArnA of Sulfolobus acidocaldarius; ArnB of Sulfolobus acidocaldarius; Same tag uncertainty as m13; ArnB is the chain that is mainly phosphorylated in the complex; also called phosphorylated oligomeric ArnA/B complex; (ArnA/B)2; source: reconstituted ArnA/B complex (E. coli proteins, SEC-isolated) incubated with ArnC, ATP and Mn2+ at 55°C for 30 min

Data set [1] concerns the target His-tagged ArnA (S. acidocaldarius). Nature of the data set: mass photometry; Refeyn OneMP, 20-100 nM protein in 50 mM Tris pH 8.0, 150 mM NaCl; SEC fractions of ArnA, ArnB, ArnA/B complex and phosphorylated ArnA/B complex.
Data set [2] deals with the molecule itself. Nature of the data set: SEC; Superdex 200 (16/600), 50 mM Tris pH 8, 150 mM NaCl; equal amounts of ArnA and ArnB mixed and kept on ice for 1 h; fractions on SDS-PAGE; stoichiometry concluded from SEC and mass photometry together. Background: In gel filtration, larger molecules generally elute earlier.
For data set [3], the target named is B1. The data set is described as above. The settings on record: both partners purified.
Data set [4] concerns the molecule itself. Nature of the data set: mass photometry; Refeyn OneMP, 20-100 nM protein in 50 mM Tris pH 8.0, 150 mM NaCl; SEC fractions of ArnA, ArnB, ArnA/B complex and phosphorylated ArnA/B complex.

Turning to His-tagged ArnA (natural protein), in data set [1], the stoichiometry N (usually a count of units in the complex or per binding partner) turned out to be 2.

Regarding B1, the “stoichiometry N” value in data set [2] worked out at 2.

Take B2: the “stoichiometry N” value in data set [3] and in data set [1] was 1 in each case.

Regarding B3, the “stoichiometry N” value in data set [4] is 2 ArnA/B heterodimers per complex.
